Among the data in the supplement of paper PMC10126150 are switch fluorescence ratio values, retold here.

± gives the standard deviation of the averaged measurements.

This data set concerns ATP. As to the kind of experiment: switch fluorescence ratio, 500 uM ATP over buffer (Cy3 cluster intensity, sum of 5 cycles each) (fold (ratio)); higher = stronger signal-on switching upon ATP binding; sequences stand for … in TCGTCGGCAGCGTCAGATGTGTATAAGAGACAGTTTTTTTTTTTTTTTTTTTTTTTTT…TC. As to conditions: aptamer strand: ATP DNA aptamer (quencher-CACCTGGGGGAGTATTGCGGAGGAAGG + anchor), 100 nM annealed; ATP concentration: 500 uM. The procedure, abridged: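 The quencher-labelled ATP aptamer, at 100 nM, was annealed to Cy3-labelled switching-strand clusters on a modified Illumina MiSeq flow-cell. The clusters were imaged in selection buffer, then after 15 min with 500 uM ATP at 22 °C, and this buffer/ATP cycle ran five times with NaOH stripping and re-annealing between runs. Per-cluster fluorescence ratios, summed target-cycle over summed buffer-cycle Cy3 intensity, were averaged per switch-domain sequence. Clusters outside 100-1000 RFU were excluded.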
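Further: ATP exposure 15 min at 22 °C before imaging.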

On to CCTCCCTTTT, for which the switch fluorescence ratio amounted to 2.2 ± 0.4.
The result for CCTCGCGGGA reads 1.8 ± 0.028; that for CCTCGGACTT, 1.57 ± 0.48.
For CCTCGGTTTT, the switch fluorescence ratio came to 1.24 ± 0.013.
The result for CCTCGTGTTG reads 1.02 ± 0.022.
As to CCTCGTTATT, the switch fluorescence ratio is 1.27 ± 0.027.
For CCTCTATTCT the value was 1.1 ± 0.026; for CCTCTGATCT, 1.38 ± 0.1.
The result for CCTCTGATTT reads 1.47 ± 0.3; that for CCTCTGGTTT, 2.84 ± 0.37; that for CCTGAATTAT, 0.9941 ± 0.0012.
Turning to CCTGAGGATG, the switch fluorescence ratio was 1.03 ± 0.015.
The result for CCTGAGGTGT reads 1.47 ± 0.18; that for CCTGAGTGTA, 1 ± 0.024.
Consider CCTGAGTTTG, for which the switch fluorescence ratio came to 1.01 ± 0.035.
Take CCTGCAGGGG: the switch fluorescence ratio was found to be 1.094 ± 0.0051.
With CCTGCGGGGA, the switch fluorescence ratio worked out at 1.31 ± 0.29.
For CCTGGAGCGG the value was 1.19 ± 0.037; for CCTGGAGCTC, 1.35 ± 0.02; for CCTGGAGGTT, 0.964 ± 0.022.
For CCTGGATTTC the value was 1.01 ± 0.077; for CCTGGCAAGT, 1.87 ± 0.078; for CCTGGCAGAG, 1.22 ± 0.048.
Consider CCTGGCAGCG, for which the switch fluorescence ratio was 1.05 ± 0.03.
On to CCTGGGCCGC, for which the switch fluorescence ratio came to 1.65 ± 0.081.
With CCTGGGCCGG, the switch fluorescence ratio turned out to be 1.06 ± 0.058.
For CCTGGGCTGT the value was 1.52 ± 0.48; for CCTGGGGGAT, 1.75 ± 0.43; for CCTGGGGGC, 1.1 ± 0.056.
Turning to CCTGGGGGCA, the switch fluorescence ratio stood at 1.04 ± 0.0089.
As for CCTGGGGGGA, the switch fluorescence ratio is 1.02 ± 0.059.
As for CCTGTAGGTA, the switch fluorescence ratio is 1.009 ± 0.0069.
With CCTGTGCGGA, the switch fluorescence ratio was determined as 1.534 ± 0.013.
Turning to CCTGTGGCAC, the switch fluorescence ratio was determined as 1.21 ± 0.054.
For CCTGTGTAAT the value was 3.18 ± 0.053; for CCTTAAGACT, 1.07 ± 0.028.
For CCTTAAGGCG the value was 1.023 ± 0.0026.
Consider CCTTAATTTG, for which the switch fluorescence ratio worked out at 1.007 ± 0.0089.
The result for CCTTAGTTGG reads 1.02 ± 0.056; that for CCTTATGGCG, 0.996 ± 0.076.
The result for CCTTATGGGA reads 0.982 ± 0.026; that for CCTTCACCTT, 1.077 ± 0.0017.
For the sequence CCTTCCCGGG, the switch fluorescence ratio was 1.59 ± 0.0072.
CCTTCCTGTG: the switch fluorescence ratio stood at 3.62 ± 0.024.
As for CCTTCGAGG, the switch fluorescence ratio stood at 1.15 ± 0.2.
The result for CCTTGAAGGT reads 0.984 ± 0.0091.
In the case of CCTTGCCGGG, the switch fluorescence ratio came to 1.05 ± 0.019.
As to CCTTGGGGGG, the switch fluorescence ratio amounted to 1.03 ± 0.11.
For CCTTGTAGGT the value was 1.02 ± 0.038; for CCTTGTATAA, 1.07 ± 0.014; for CCTTGTATAT, 1.077 ± 0.0083.
The result for CCTTTATCGG reads 0.997 ± 0.012; that for CCTTTATGGG, 0.9952 ± 0.0095.
For CCTTTCCGGG the value was 1.21 ± 0.048; for CCTTTCTTTT, 1.04 ± 0.049.
Turning to CCTTTGGATA, the switch fluorescence ratio was 1.13 ± 0.16.
The result for CCTTTTAGCA reads 2.07 ± 0.12; that for CCTTTTAGCG, 1.16 ± 0.055.
In the case of CCTTTTAGTT, the switch fluorescence ratio was 0.988 ± 0.026.
With CCTTTTATTT, the switch fluorescence ratio was found to be 1.04 ± 0.018.
The result for CCTTTTGCCA reads 1.1 ± 0.028.
Take CCTTTTGGGT: the switch fluorescence ratio stood at 1.015 ± 0.0095.
With CGAAAAAAAT, the switch fluorescence ratio was 1.03 ± 0.035.
For CGAAACATGA the value was 1.01 ± 0.014.
For CGAAAGGGCT the value was 0.989 ± 0.036; for CGAAATGTCC, 1.061 ± 0.002.
